The numbers were not newly measured in article PMC3212873, which cites them from elsewhere.

Values joined by “and” are separate entries in the source; they are usually repeats but may differ in a detail not shown here. Equal entries are not always repeated.

For data set [1], the target named is T1, Cys32 (UniProt position 33, FWAEWCGPCKM). Kind of data set: fluorescence. The note with it: reduced Trx-(SH)2, no protein ligand.
The target in data set [2] is T2, Cys35 (UniProt position 36, EWCGPCKMIAP). Kind of data set: chemical modification. The settings on record: reduced Trx-(SH)2, no protein ligand.
Data set [3] addresses T1, Cys32. Description: chemical modification. The note with it: reduced Trx-(SH)2, no protein ligand.
In data set [4] the target is T2, Cys35. Kind of data set: UV-vis. The note with it: reduced Trx-(SH)2, no protein ligand.
Data set [5] has as its target T1, Cys32. Description: UV-vis. The settings on record: reduced Trx-(SH)2, no protein ligand.
Data set [6] deals with T2, Cys35. Kind of data set: Raman. The note with it: reduced Trx-(SH)2, no protein ligand.
Data set [7] concerns the target T1, Cys32. Description: Raman. The settings on record: reduced Trx-(SH)2, no protein ligand.
Data set [8] concerns the target T1, Cys32. Description: NMR. The note with it: reduced Trx-(SH)2, no protein ligand.
Data set [9] deals with Cys32 (UniProt position 33, FWAEWCPYCKM). The note with it: reduced variant.

The term pKa denotes the pH at which an ionisable group is half protonated. In the case of “Thioredoxin 1 (EcTrx) (Escherichia coli)”, the pKa is on record as 6.28 with Cys32 [1]; 9.0 with Cys35 [2]; 6.7 with Cys32 [3]; 9-10 in the data set with Cys35 [4]; 9-10 in the data set with Cys32 [5]; 7.9 with Cys35 [6]. Further, the pKa with Cys32 [7] was 7.1; with Cys32 [8] it was 7.4 and 7.0-7.1 and 7.5 or 9.2.
As for “Thioredoxin 1, glutaredoxin-like active-site variant (Grx-like EcTrx, CPYC) (Escherichia coli; G33P;P34Y)”, the pKa with Cys32 [9] is given as 5.9.
